According to publication doi:10.1101/2021.01.21.427566, “Gradual opening of Smc arms in prokaryotic condensin” (bioRxiv, 2021):
Numbering of substitutions follows the chain as printed. Numbers in names are those of the source.

B1: Smc^3S(R643C, E1118Q) (natural protein, B. subtilis, UniProt P51834 1-1186, looked up)
chain: MFLKRLDVIGFKSFAERISVDFVKGVTAVVGPNGSGKSNITDAIRWVLGEQSARSLRGGKMEDIIFAGSDSRKRLNLAEVTLTLDNDDHFLPIDFHEVSVTRRVYRSGESEFLINNQPSRLKDIIDLFMDSGLGKEAFSIISQGKVEEILSSKAEDRRSIFEEAAGVLKYKTRKKKAENKLFETQDNLNRVEDILHELEGQVEPLKIQASIAKDYLEKKKELEHVEIALTAYDIEELHGKWSTLKEKVQMAKEEELAESSAISAKEAKIEDTRDKIQALDESVDELQQVLLVTSEELEKLEGRKEVLKERKKNAVQNQEQLEEAIVQFQQKETVLKEELSKQEAVFETLQAEVKQLRAQVKEKQQALSLHNENVEEKIEQLKSDYFELLNSQASIRNELQLLDDQMSQSAVTLQRLADNNEKHLQERHDISARKAASETEFARIEQEIHSQVGAYRDMQTKYEQKKRQYEKNESALYQAYQYVQQARSKKDMLETMQGDFSGFYQGVKEVLKAKERLGGIRGAVLELISTEQKYETAIEIALGASAQHVVTDDEQSARKAIQYLKQNSFGRATFLPLSVIRDRQLQSRDAETAARHSSFLGVASELVTFDPAYRSVIQNLLGTVLITEDLKGANELAKLLGHCYRIVTLEGDVVNPGGSMTGGAVKKKNNSLLGRSRELEDVTKRLAEMEEKTALLEQEVKTLKHSIQDMEKKLADLRETGEGLRLKQQDVKGQLYELQVAEKNINTHLELYDQEKSALSESDEERKVRKRKLEEELSAVSEKMKQLEEDIDRLTKQKQTQSSTKESLSNELTELKIAAAKKEQASKGEEDNLARLKKELTETELALKEAKEDLSFLTSEMSSSTSGEEKLEEAAKHKLNDKTKTIELIALRRDQRIKLQHGLDTYERELKEMKRLYKQKTTLLKDEEVKLGRMEVELDNLLQYLREEYSLSFEGAKEKYQLETDPEEARKRVKLIKLAIEELGTVNLGSIDEFERVNERYKFLSEQKEDLTEAKNTLFQVIEEMDEEMTKRFNDTFVQIRSHFDQVFRSLFGGGRAELRLTDPNDLLHSGVEIIAQPPGKKLQNLNLLSGGERALTAIALLFSILKVRPVPFCVLDQVEAALDEANVFRFAQYLKKYSSDTQFIVITHRKGTMEEADVLYGVTMQESGVSKVISVKLEETKEFVQ
modifications: MTSL spin label on the engineered cysteine 643
notes: Smc, Bacillus subtilis (Bsu), cysteine-lite Smc^3S background with R643C and Walker B E1118Q; also called Smc^3S(EQ) single cysteine mutant; source: E. coli BL21-Gold (DE3), purified (HiTrap Blue, Heparin, gel filtration)
B2: Smc^3S(D193C) (natural protein, B. subtilis, UniProt P51834 1-1186, looked up)
chain: B1 chain with D193C, C643R, Q1118E
modifications: MTSL spin label on the engineered cysteine 193
notes: Smc, Bacillus subtilis (Bsu), cysteine-lite Smc^3S background with D193C, without E1118Q; also called wild-type Smc (without E1118Q) with D193C; wt Smc; source: E. coli BL21-Gold (DE3), purified (HiTrap Blue, Heparin, gel filtration)
B3: Smc^3SV(Y944C) (natural protein, B. subtilis, UniProt P51834 1-1186, looked up)
chain: B1 chain with C643R, Y944C, C1114V, Q1118E
modifications: engineered cysteine 944 cross-linked with M3M
notes: Smc, Bacillus subtilis (Bsu), cys-free Smc^3SV background with Y944C; also called Y944C at contact 3^C; source: E. coli BL21-Gold (DE3), purified (HiTrap Blue, Heparin, gel filtration without reducing agent)
B4: Smc^3SV(D193C) (natural protein, B. subtilis, UniProt P51834 1-1186, looked up)
chain: B1 chain with D193C, C643R, C1114V, Q1118E
modifications: engineered cysteine 193 cross-linked with M3M
notes: Smc, Bacillus subtilis (Bsu), cys-free Smc^3SV background with D193C; also called D193C at contact 1^N; source: E. coli BL21-Gold (DE3), purified (HiTrap Blue, Heparin, gel filtration without reducing agent)
B5: Smc^3SV(Q320C) (natural protein, B. subtilis, UniProt P51834 1-1186, looked up)
chain: B1 chain with Q320C, C643R, C1114V, Q1118E
modifications: engineered cysteine 320 cross-linked with M3M
notes: Smc, Bacillus subtilis (Bsu), cys-free Smc^3SV background with Q320C; also called Q320C at contact 4^N; source: E. coli BL21-Gold (DE3), purified (HiTrap Blue, Heparin, gel filtration without reducing agent)
B6: Smc^3SV(A715C) (natural protein, B. subtilis, UniProt P51834 1-1186, looked up)
chain: B1 chain with C643R, A715C, C1114V, Q1118E
modifications: engineered cysteine 715 cross-linked with M3M
notes: Smc, Bacillus subtilis (Bsu), cys-free Smc^3SV background with A715C; also called A715C at contact 7^C; source: E. coli BL21-Gold (DE3), purified (HiTrap Blue, Heparin, gel filtration without reducing agent)

Biological target: the molecule itself
Assay: EPR-DEER; MTSL-labelled single-cysteine Smc, 5 µM, mixed with ScpA and ScpB (similar trends without ScpAB); apo, or with 1 mM ATP and 10 µM dsDNA40; 50 mM Tris-HCl pH 7.5, 50 mM NaCl, 2 mM MgCl2, 40 % ethylene glycol-d6, 90 % deuterium oxide; shock-frozen, DEER traces at 50 K, Q band; spin-spin distances between the two Smc of a dimer

Binding result, binds:
B1
B2

Biological target: the molecule itself
Assay: cross-linking; purified single-cysteine Smc, 30 µM dimers with 600 µM M3M in 50 mM Tris-HCl pH 7.5, 200 mM NaCl, 4 °C overnight; non-reducing SDS-PAGE, Coomassie; reversed by up to 10 mM DTT

Binding result, binds:
B3
B4
B5
B6
